Percent of the total protein that is dimeric data for two substances are collected here from paper PMC11370617.

The target of test [1] is Mus musculus arginyltransferase 1 isoform 1 (MmATE1-1), affinity tag cleaved, apo (Mus musculus) (UniProt Q9Z2A5). The experiment in a line: SEC-MALS. (Size exclusion chromatography separates by hydrodynamic size, large species first.)
For test [2], the target named is Mus musculus arginyltransferase 1 isoform 1 (MmATE1-1), affinity tag intact, apo (Mus musculus) (UniProt Q9Z2A5). Briefly: SEC-MALS.

As for “Mus musculus arginyltransferase 1 isoform 1 (MmATE1-1), affinity tag cleaved, apo (from UniProt Q9Z2A5 1-516) (enzyme)”, the percent of the total protein that is dimeric in test [1] is less than 20%. With “Mus musculus arginyltransferase 1 isoform 1 (MmATE1-1), affinity tag intact, apo (from UniProt Q9Z2A5 1-516) (enzyme)”, the percent of the total protein that is dimeric in test [2] was less than 20%.
